# Data published in doi:10.1101/2023.08.20.554025.
# Columns and labels:
# Test in all cases: negative-stain EM
# [1] = molecular target: GhV F I268F/Q287P/S196C/A215C ectodomain (Ghanaian virus (GhV))
# [2] = molecular target: GhV F S196C/A215C ectodomain (Ghanaian virus (GhV))
# [3] = molecular target: GhV F I268F/Q287P ectodomain (Ghanaian virus (GhV))
substance,measurement,setting,value
GhV F I268F/Q287P/S196C/A215C ectodomain (domain or fragment),stoichiometry N,[1],3
GhV F S196C/A215C ectodomain (domain or fragment),stoichiometry N,[2],3
GhV F I268F/Q287P ectodomain (domain or fragment),stoichiometry N,[3],3
